This is an account of results in patent publication US20250090876A1 (published 2025).

This experiment concerns the target antigen target. In words: BLI. (In BLI a coated tip is dipped into the sample, and binding shifts an interference pattern.)

B1: ESS0102 5A (antibody, V domains shown)
VH: EVQLLESGGGLVQPGGSLRLSCAASGFSFSSYEMNWVRQAPGKGPEWISYISSGGGTIYYADSVRGRFTISRDNSNNTLYLQMNSLRPDDTAIYYCARDRGRKWLQLLFDSWGQGTLVTVSS
VL: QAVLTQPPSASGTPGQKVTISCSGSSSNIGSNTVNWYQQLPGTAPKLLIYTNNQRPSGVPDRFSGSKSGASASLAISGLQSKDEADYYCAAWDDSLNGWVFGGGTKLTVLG
The Kd is the concentration at which binding is half-saturated. A lower Kd goes with higher affinity. On to B1, for which binding was characterised by a dissociation constant (Kd) of 11.6 nM. That is a double-digit nanomolar value.
